Data on four molecules can be found in patent US20260242492A1 (JOINT STOCK COMPANY BIOCAD, published 2026).

Test [1] has as its target T1, biotinylated peptide [NH2]CEPANPSEKNSPSTQYCYSIQS[CH2CH2]biotin comprising a fragment of the human CD20 … (human, [NH2] at the N-terminus; [CH2CH2]biotin at the C-terminus (so in the source)).
T1 construct: Immobilized on streptavidin (SAX) sensors; also called CD20 peptide
T1 peptide: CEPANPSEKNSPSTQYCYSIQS
Kind of test: BLI (Octet RED 384), biotinylated CD20 peptide on SAX sensors, antibody-like molecule as analyte, 1:1 model, global fit. The method, then: (§1) Experiments were carried out using a kinetic buffer solution (hereinafter referred to as 1×KB); volume fraction of added Tween 20 was 0.1%; mass fraction of added BSA (bovine serum albumin) was 0.1%; pH 7.4. Before the measurement, the ProA sensors were regenerated with a solution of 50 mM glycine and hydrochloric acid, pH 1.8 (5 seconds in the regenerating solution, 5 seconds in 1×KB, three repetitions).
In the case of biotinylated […], the peptide at a concentration of 2.5 μg/ml was immobilized on the surface of SAX sensors (High Precision Streptavidin (SAX) biosensors, ForteBio) for 300 seconds. The baseline was recorded in a 1×KB solution for 120 seconds. Sensors loaded with peptide were then immersed into wells containing the solution of antibody-like molecule (analyte) in 1×KB for 300 seconds. Measurements were performed for solutions with analyte (antibody-like molecule in case of CD20 peptide) at concentrations […] and 75 µg/ml. Complex dissociation was recorded in 1×KB for 60 seconds.
(§2) To obtain numerical values of kinetic constants (kon is the on/association rate constant, kdis is the dissociation rate constant, KD is the equilibrium dissociation constant or affinity constant), the resulting sensograms were processed according to the 1:1 interaction model using Global Fit (selection of one set of kon, kdis, KD constants to analyze several sensograms of different concentrations) of the ForteBio Octet Data Analysis 9.0 software.

The target in test [2] is T2, extracellular domain of the human PD-1 protein (hPD1ex-H6F) (human, UniProt Q15116 21-170).
T2 construct: Made in CHO cells, molecular weight 20.6 kDa as printed; also called hPDlex-H6F
As to the kind of experiment: BLI (Octet RED 384), antibody-like molecule on ProA sensors, hPD1ex-H6F analyte 485.4 nM, 1:1 model. The method, then: as §1
(§3) In the case of the hPDlex-H6F and hCSF1R_His antigens, the Protein A (ProA) biosensors (ForteBio) were immersed in a solution with antibody-like molecules at a concentration of 10 µg/ml for 300 seconds to immobilize same. The baseline was recorded in 1×KB for 120 seconds. Sensors loaded with the antibody-like molecule were then immersed into wells containing a solution of the target antigen (analyte) in a kinetic buffer for 300 seconds. Measurements were performed for solutions with hPDlex-H6F analyte at concentrations of 10 µg/ml (485.4 nM), for solutions with hCSF1R_His analyte at concentrations of 10 µg/ml (174.2 nM). Complex dissociation in 1×KB was then detected for 600 seconds.
as §2

Test [3] addresses T3, extracellular domain of the human CSF1R protein (hCSF1R_His) (human, UniProt P07333 20-512).
T3 construct: range 20-512; Made in CHO cells, molecular weight 57.4 kDa as printed; not shown: C-terminal His-tag and FLAG-tag
As to the kind of experiment: BLI (Octet RED 384), antibody-like molecule on ProA sensors, hCSF1R_His analyte 174.2 nM, 1:1 model. The method, then: as §1, §3, §2

T3 sequence (P07333 20-512 limits assumed): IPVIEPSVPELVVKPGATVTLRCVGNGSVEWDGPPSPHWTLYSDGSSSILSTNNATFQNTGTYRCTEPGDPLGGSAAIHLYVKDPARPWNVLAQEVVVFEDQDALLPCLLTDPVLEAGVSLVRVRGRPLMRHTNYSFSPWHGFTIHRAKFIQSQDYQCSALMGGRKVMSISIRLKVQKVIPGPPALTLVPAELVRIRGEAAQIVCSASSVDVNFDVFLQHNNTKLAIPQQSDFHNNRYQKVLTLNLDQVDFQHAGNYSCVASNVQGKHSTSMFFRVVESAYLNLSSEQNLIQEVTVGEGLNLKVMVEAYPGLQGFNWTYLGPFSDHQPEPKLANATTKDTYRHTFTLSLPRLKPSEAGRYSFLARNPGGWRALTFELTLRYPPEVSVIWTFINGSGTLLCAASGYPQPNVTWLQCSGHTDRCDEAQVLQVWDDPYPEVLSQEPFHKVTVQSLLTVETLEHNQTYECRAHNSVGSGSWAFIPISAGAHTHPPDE
T2 sequence (Q15116 21-170 limits assumed, form in doubt): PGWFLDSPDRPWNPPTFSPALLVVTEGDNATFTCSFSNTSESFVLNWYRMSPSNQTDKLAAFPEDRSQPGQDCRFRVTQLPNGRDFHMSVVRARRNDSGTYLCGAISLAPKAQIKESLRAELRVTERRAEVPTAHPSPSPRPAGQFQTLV

B1: antibody-like molecule 08-002 (binds CD20 and PD1) (bispecific antibody, human IgG1, kappa, L234A L235A)
heavy 1: EVQLVESGGGLVQPGGSLRLSCAASGYTFTSYNMHWVRQAPGKGLEWVGAIYPGNGDTSYNQKFKGRFTISVDKSKNTLYLQMNSLRAEDTAVYYCARVVYYSNSYWYFDVWGQGTLVTVSSASTKGPSVFPLAPSSKSTSGGTAALGCLVKDYFPEPVTVSWNSGALTSGVHTFPAVLQSSGLYSLSSVVTVPSSSLGTQTYICNVNHKPSNTKVDKRVEPKSCDKTHTCPPCPAPEAAGGPSVFLFPPKPKDTLYITREPEVTCVVVDVSHEDPEVKFNWYVDGVEVHNAKTKPREEQYNSTYRVVSVLTVLHQDWLNGKEYKCKVSNKALPAPIEKTISKAKGQPREPQVCTLPPSRDELTKNQVSLSCAVKGFYPSDIAVEWESNGQPENNYKTTPPVLDSDGSFFLVSKLTVDKSRWQQGNVFSCSVMHEALHNHYTQKSLSLSPGK
light 1: DIQMTQSPSSLSASVGDRVTITCRASSSVSYMHWYQQKPGKAPKPLIYAPSNLASGVPSRFSGSGSGTDFTLTISSLQPEDFATYYCQQWSFNPPTFGQGTKVEIKRTVAAPSVFIFPPSDEQLKSGTASVVCLLNNFYPREAKVQWKVDNALQSGNSQESVTEQDSKDSTYSLSSTLTLSKADYEKHKVYACEVTHQGLSSPVTKSFNRGEC
heavy 2: not shown
light 2: QPVLTQPLSVSVALGQTARITCGGNNIGSKNVHWYQQKPGQAPVLVIYRDSNRPSGIPERFSGSNSGNTATLTISRAQAGDEADYYCQVWDSSTAVFGTGTKLTVLQQRQVKPEAWLSKGPSPGPGRLQLVCHVSGFYPKPVWVMWMRGEQEQQGTQLGDILPNADWTWYLRATLDVADGEAAGLSCRVKHSSLEGQDIILYWRGSC
notes: Four distinct chains: Ocrelizumab Fab arm (hole) and Prolgolimab Fab-like arm with b2m/CD1b alpha3 dimerization unit (knob)
In test [1], B1 yielded a dissociation constant (Kd) of 845 nM, a koff of 0.0986 s⁻¹ and an on-rate (kon) of 117000 M⁻¹ s⁻¹. In addition, in test [2], the dissociation constant (Kd) amounted to 16.9 nM, the koff worked out at 0.000658 s⁻¹ and the kon turned out to be 39000 M⁻¹ s⁻¹.

B2: antibody-like molecule 08-004 (binds CSF1R and PD1) (bispecific antibody, human IgG1, kappa, L234A L235A)
heavy 1: QVQLVESGGGLVRPGGSLRLSCAASEFTFDDYAMSWVRQAPGKGLEWVSAISWNGGSTNYADSVKGRFTISRDNAKNSLYLQMNSLRAEDTALYYCASTVEVAHRRLYKYLEVWGQGTLVTVSSASTKGPSVFPLAPSSKSTSGGTAALGCLVKDYFPEPVTVSWNSGALTSGVHTFPAVLQSSGLYSLSSVVTVPSSSLGTQTYICNVNHKPSNTKVDKRVEPKSCDKTHTCPPCPAPEAAGGPSVFLFPPKPKDTLYITREPEVTCVVVDVSHEDPEVKFNWYVDGVEVHNAKTKPREEQYNSTYRVVSVLTVLHQDWLNGKEYKCKVSNKALPAPIEKTISKAKGQPREPQVCTLPPSRDELTKNQVSLSCAVKGFYPSDIAVEWESNGQPENNYKTTPPVLDSDGSFFLVSKLTVDKSRWQQGNVFSCSVMHEALHNHYTQKSLSLSPGK
light 1: QAGLTQPPSVSVAPGQTARITCGGNNIGSKSVHWYQQKPGQAPVLVVYGDSDRPSGIPERFSGSNSGNTATLTISRVEAGDEADYYCQVWDISSDHVVFGGGTQLTVLRTVAAPSVFIFPPSDEQLKSGTASVVCLLNNFYPREAKVQWKVDNALQSGNSQESVTEQDSKDSTYSLSSTLTLSKADYEKHKVYACEVTHQGLSSPVTKSFNRGEC
heavy 2: not shown
light 2: QPVLTQPLSVSVALGQTARITCGGNNIGSKNVHWYQQKPGQAPVLVIYRDSNRPSGIPERFSGSNSGNTATLTISRAQAGDEADYYCQVWDSSTAVFGTGTKLTVLQQRQVKPEAWLSKGPSPGPGRLQLVCHVSGFYPKPVWVMWMRGEQEQQGTQLGDILPNADWTWYLRATLDVADGEAAGLSCRVKHSSLEGQDIILYWRGSC
notes: Four distinct chains: anti-CSF1R Fab arm (hole) and Prolgolimab Fab-like arm with b2m/CD1b alpha3 dimerization unit (knob)
Take B2: in test [3], the Kd came to 2.23 nM, the off-rate (koff) is 0.000443 s⁻¹ and the on-rate (kon) was 199000 M⁻¹ s⁻¹. In test [2], this molecule gave a dissociation constant Kd of 13.7 nM, an off-rate constant (koff) of 0.000568 s⁻¹ and a kon of 41400 M⁻¹ s⁻¹.

B3: antibody-like molecule 08-001 (binds PD1 and CD20) (bispecific antibody, human IgG1, kappa, L234A L235A)
heavy 1: QVQLVQSGGGLVQPGGSLRLSCAASGFTFSSYWMYWVRQVPGKGLEWVSAIDTGGGRTYYADSVKGRFAISRVNAKNTMYLQMNSLRAEDTAVYYCARDEGGGTGWGVLKDWPYGLDAWGQGTLVTVSSASTKGPSVFPLAPSSKSTSGGTAALGCLVKDYFPEPVTVSWNSGALTSGVHTFPAVLQSSGLYSLSSVVTVPSSSLGTQTYICNVNHKPSNTKVDKRVEPKSCDKTHTCPPCPAPEAAGGPSVFLFPPKPKDTLYITREPEVTCVVVDVSHEDPEVKFNWYVDGVEVHNAKTKPREEQYNSTYRVVSVLTVLHQDWLNGKEYKCKVSNKALPAPIEKTISKAKGQPREPQVCTLPPSRDELTKNQVSLSCAVKGFYPSDIAVEWESNGQPENNYKTTPPVLDSDGSFFLVSKLTVDKSRWQQGNVFSCSVMHEALHNHYTQKSLSLSPGK
light 1: QPVLTQPLSVSVALGQTARITCGGNNIGSKNVHWYQQKPGQAPVLVIYRDSNRPSGIPERFSGSNSGNTATLTISRAQAGDEADYYCQVWDSSTAVFGTGTKLTVLQRTVAAPSVFIFPPSDEQLKSGTASVVCLLNNFYPREAKVQWKVDNALQSGNSQESVTEQDSKDSTYSLSSTLTLSKADYEKHKVYACEVTHQGLSSPVTKSFNRGEC
heavy 2: not shown
light 2: DIQMTQSPSSLSASVGDRVTITCRASSSVSYMHWYQQKPGKAPKPLIYAPSNLASGVPSRFSGSGSGTDFTLTISSLQPEDFATYYCQQWSFNPPTFGQGTKVEIKQRQVKPEAWLSKGPSPGPGRLQLVCHVSGFYPKPVWVMWMRGEQEQQGTQLGDILPNADWTWYLRATLDVADGEAAGLSCRVKHSSLEGQDIILYWRGSC
On to B3, for which, in test [1], the Kd came out at 848 nM, the off-rate constant (koff) was determined as 0.139 s⁻¹ and the kon was determined as 164000 M⁻¹ s⁻¹. Besides, in test [2], the equilibrium dissociation constant (Kd) came out at 15.9 nM, the koff was found to be 0.000601 s⁻¹ and the on-rate (kon) was 37800 M⁻¹ s⁻¹.

B4: antibody-like molecule 08-003 (binds PD1 and CSF1R) (bispecific antibody, human IgG1, kappa, L234A L235A)
heavy 1: QVQLVQSGGGLVQPGGSLRLSCAASGFTFSSYWMYWVRQVPGKGLEWVSAIDTGGGRTYYADSVKGRFAISRVNAKNTMYLQMNSLRAEDTAVYYCARDEGGGTGWGVLKDWPYGLDAWGQGTLVTVSSASTKGPSVFPLAPSSKSTSGGTAALGCLVKDYFPEPVTVSWNSGALTSGVHTFPAVLQSSGLYSLSSVVTVPSSSLGTQTYICNVNHKPSNTKVDKRVEPKSCDKTHTCPPCPAPEAAGGPSVFLFPPKPKDTLYITREPEVTCVVVDVSHEDPEVKFNWYVDGVEVHNAKTKPREEQYNSTYRVVSVLTVLHQDWLNGKEYKCKVSNKALPAPIEKTISKAKGQPREPQVCTLPPSRDELTKNQVSLSCAVKGFYPSDIAVEWESNGQPENNYKTTPPVLDSDGSFFLVSKLTVDKSRWQQGNVFSCSVMHEALHNHYTQKSLSLSPGK
light 1: QPVLTQPLSVSVALGQTARITCGGNNIGSKNVHWYQQKPGQAPVLVIYRDSNRPSGIPERFSGSNSGNTATLTISRAQAGDEADYYCQVWDSSTAVFGTGTKLTVLQRTVAAPSVFIFPPSDEQLKSGTASVVCLLNNFYPREAKVQWKVDNALQSGNSQESVTEQDSKDSTYSLSSTLTLSKADYEKHKVYACEVTHQGLSSPVTKSFNRGEC
heavy 2: not shown
light 2: QAGLTQPPSVSVAPGQTARITCGGNNIGSKSVHWYQQKPGQAPVLVVYGDSDRPSGIPERFSGSNSGNTATLTISRVEAGDEADYYCQVWDISSDHVVFGGGTQLTVLQRQVKPEAWLSKGPSPGPGRLQLVCHVSGFYPKPVWVMWMRGEQEQQGTQLGDILPNADWTWYLRATLDVADGEAAGLSCRVKHSSLEGQDIILYWRGSC
notes: Four distinct chains: Prolgolimab Fab arm (hole) and anti-CSF1R Fab-like arm with b2m/CD1b alpha3 dimerization unit (knob)
In test [3], B4 gave a Kd of 1.44 nM, a dissociation rate constant (koff) of 0.000238 s⁻¹ and an on-rate (kon) of 165000 M⁻¹ s⁻¹. In test [2], this molecule gave a Kd of 12.4 nM, a koff of 0.000487 s⁻¹ and a kon of 39200 M⁻¹ s⁻¹.
